# Assay results: patent US20250361274A1, “PEPTIDE AND PEPTIDE-CONTAINING AGENT” (PEPTIDREAM INC., priority 2022, published 2025)
# Numbered stars: 1 amine (or outer) side, 2 acyl side, 3 side chain; on linkers, the order of the positions; unused ones are H or OH. Bridge positions count the residues as written; N and C are the ends. Square brackets hold non-standard residues; d marks the D form. Ends that are not written are not given here. KCOpipzaa = N6-(4-(carboxymethyl)piperazine-1-carbonyl)-L-lysine, O=C(NCCCC[C@H](N[*:1])C(=O)[*:2])N1CCN(CC(=O)[*:3])CC1; Phe(4-guanidino) = N=C(N)Nc1ccc(C[C@H](N)C(=O)O)cc1; 3Pal(6-Ph) = N[C@@H](Cc1ccc(-c2ccccc2)nc1)C(=O)O; Phe(4-COOH) = N[C@@H](Cc1ccc(C(=O)O)cc1)C(=O)O; Bip = N[C@@H](Cc1ccc(-c2ccccc2)cc1)C(=O)O; 3Pal(6-NH2) = Nc1ccc(C[C@H](N)C(=O)O)cn1; Phe(4-F) = N[C@@H](Cc1ccc(F)cc1)C(=O)O; Ala(4-THP) = N[C@@H](CC1CCOCC1)C(=O)O; hTyr = N[C@@H](CCc1ccc(O)cc1)C(=O)O; hCit = NC(=O)NCCCC[C@H](N)C(=O)O; 4Pal = N[C@@H](Cc1ccncc1)C(=O)O
# Key:
# BMP7 = target: T1, BMP7 (Homo sapiens, UniProt P18075); experiment: BMP7 signal transduction inhibitory activity: SMAD1 phosphorylation by BMP7 stimulus, A549 cells; type: cell-based; conditions: for aLISA BMP7: inhibition of SMAD1 phosphorylation by BMP7 stimulus, A549 cells, peptides of Synthesis 1, classes E, F, ND; for aLIZA BMP7 (10 nM) % Inh: SMAD1 phosphorylation by BMP7 stimulus, peptide conc. in assay 10, 100, 1000 nM, class symbols
# T1 sequence (P18075 293-431): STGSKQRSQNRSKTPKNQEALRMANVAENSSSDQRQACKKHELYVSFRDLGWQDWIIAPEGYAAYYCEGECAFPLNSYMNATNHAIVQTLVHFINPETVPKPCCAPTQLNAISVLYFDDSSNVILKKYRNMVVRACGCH
# Procedure, shortened: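 Cell line A549; stimulus BMP7 10 nM; endpoint pSMAD1. Peptide doses: three concentrations (1–1,000 nM range) or 8 × 1/3 dilutions from 100/1,000 nM.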
# BMP4 = target: T2, BMP4 (Homo sapiens, UniProt P12644); experiment: BMP4 signal transduction inhibitory activity: SMAD1 phosphorylation by BMP4 stimulus, AlphaLISA SureFire, A549 cells; type: cell-based; conditions: for aLISA BMP4: inhibition of SMAD1 phosphorylation by BMP4 stimulus, A549 cells, peptides of Synthesis 1, classes D-F, ND; for aLIZA BMP4 (0.2 nM) % Inh: SMAD1 phosphorylation by BMP4 stimulus, peptide conc. in assay 0.02, 0.2, 2 nM, class symbols
# T2 sequence (P12644 293-408): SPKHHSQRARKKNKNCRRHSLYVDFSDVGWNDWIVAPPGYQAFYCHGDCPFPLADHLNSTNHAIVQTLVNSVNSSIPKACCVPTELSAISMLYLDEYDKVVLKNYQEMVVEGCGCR
Substance,aLISA BMP7 (BMP7),aLISA BMP4 (BMP4),aLIZA BMP7 (10 nM) % Inh (BMP7),aLIZA BMP4 (0.2 nM) % Inh (BMP4)
134 ({CH2CO}-ERVYVD[Phe(4-guanidino)][Bip]PYV[Bip]Y[Phe(4-COOH)][Phe(4-COOH)]SCG-NH2; thioether N-17; not fully specified) [compound 134],E (showed 50% or more of inhibitory activity in a zone to which the peptide was added in an amount of 10 nM),E (showed less than 50% of inhibitory activity in 0.2 nM-addition zone and showed 50% or more of inhibitory activity in 2 nM-addition zone),,
135 ({CH2CO}-ERVYVD[hCit][Bip]PYV[Bip]Y[Phe(4-COOH)][Phe(4-COOH)]SCG-NH2; thioether N-17; not fully specified) [compound 135],E (showed 50% or more of inhibitory activity in a zone to which the peptide was added in an amount of 10 nM),E (showed less than 50% of inhibitory activity in 0.2 nM-addition zone and showed 50% or more of inhibitory activity in 2 nM-addition zone),,
137 ({CH2CO}-ERVYVDR[Bip][hCit]YV[Bip]Y[Phe(4-COOH)][Phe(4-COOH)]SCG-NH2; thioether N-17; not fully specified) [compound 137],E (showed 50% or more of inhibitory activity in a zone to which the peptide was added in an amount of 10 nM),D (showed 50% or more of inhibitory activity in 0.2 nM-addition zone),,
143 ({CH2CO}-ERVYVDR[Bip]PYY[Bip]Y[Phe(4-COOH)][Phe(4-COOH)]SCG-NH2; thioether N-17; not fully specified) [compound 143],E (showed 50% or more of inhibitory activity in a zone to which the peptide was added in an amount of 10 nM),D (showed 50% or more of inhibitory activity in 0.2 nM-addition zone),,
145 ({CH2CO}-ERVYVDR[Bip]PY[hCit][Bip]Y[Phe(4-COOH)][Phe(4-COOH)]SCG-NH2; thioether N-17; not fully specified) [compound 145],E (showed 50% or more of inhibitory activity in a zone to which the peptide was added in an amount of 10 nM),D (showed 50% or more of inhibitory activity in 0.2 nM-addition zone),,
146 ({CH2CO}-ERVYVDR[Bip]PY[Ala(4-THP)][Bip]Y[Phe(4-COOH)][Phe(4-COOH)]SCG-NH2; thioether N-17; not fully specified) [compound 146],E (showed 50% or more of inhibitory activity in a zone to which the peptide was added in an amount of 10 nM),D (showed 50% or more of inhibitory activity in 0.2 nM-addition zone),,
150 ({CH2CO}-ERVYVDR[Bip]PYV[Bip]Y[Phe(4-COOH)][3Pal(6-NH2)]SCG-NH2; thioether N-17; not fully specified) [compound 150],E (showed 50% or more of inhibitory activity in a zone to which the peptide was added in an amount of 10 nM),E (showed less than 50% of inhibitory activity in 0.2 nM-addition zone and showed 50% or more of inhibitory activity in 2 nM-addition zone),,
243 (ERVYVDR[3Pal(6-Ph)]SYV[Bip]Y[Phe(4-COOH)][Phe(4-COOH)]SCG-NH2) [compound 243],,,"E (showed less than 30% of inhibitory activity in 100 nM-addition zone and showed 30% or more of inhibitory activity in 1,000 nM-addition zone)",C (showed less than 30% of inhibitory activity in 0.2 nM-addition zone and showed 30% or more of inhibitory activity in 2 nM-addition zone)
244 (ARVYVDR[3Pal(6-Ph)]SYV[Bip]Y[Phe(4-COOH)][Phe(4-COOH)]SCG-NH2; not fully specified) [compound 244],,,ND (the inhibitory activity was less than 30% at the maximum concentration evaluated),C (showed less than 30% of inhibitory activity in 0.2 nM-addition zone and showed 30% or more of inhibitory activity in 2 nM-addition zone)
245 (LRVYVDR[3Pal(6-Ph)]SYV[Bip]Y[Phe(4-COOH)][Phe(4-COOH)]SCG) [compound 245],,,ND (the inhibitory activity was less than 30% at the maximum concentration evaluated),C (showed less than 30% of inhibitory activity in 0.2 nM-addition zone and showed 30% or more of inhibitory activity in 2 nM-addition zone)
246 (ERV[4Pal]VDR[3Pal(6-Ph)]SYV[Bip]Y[Phe(4-COOH)][Phe(4-COOH)]SCG-NH2; not fully specified) [compound 246],,,"E (showed less than 30% of inhibitory activity in 100 nM-addition zone and showed 30% or more of inhibitory activity in 1,000 nM-addition zone)",C (showed less than 30% of inhibitory activity in 0.2 nM-addition zone and showed 30% or more of inhibitory activity in 2 nM-addition zone)
247 (ERV[Phe(4-F)]VDR[3Pal(6-Ph)]SYV[Bip]Y[Phe(4-COOH)][Phe(4-COOH)]SCG-NH2) [compound 247],,,"E (showed less than 30% of inhibitory activity in 100 nM-addition zone and showed 30% or more of inhibitory activity in 1,000 nM-addition zone)",C (showed less than 30% of inhibitory activity in 0.2 nM-addition zone and showed 30% or more of inhibitory activity in 2 nM-addition zone)
248 (E[KCOpipzaa]VYVDR[3Pal(6-Ph)]SYV[Bip]Y[Phe(4-COOH)][Phe(4-COOH)]SCG-NH2) [compound 248],,,ND (the inhibitory activity was less than 30% at the maximum concentration evaluated),C (showed less than 30% of inhibitory activity in 0.2 nM-addition zone and showed 30% or more of inhibitory activity in 2 nM-addition zone)
249 (ERVHVDR[3Pal(6-Ph)]SYV[Bip]Y[Phe(4-COOH)][Phe(4-COOH)]SCG-NH2; not fully specified) [compound 249],,,"E (showed less than 30% of inhibitory activity in 100 nM-addition zone and showed 30% or more of inhibitory activity in 1,000 nM-addition zone)",C (showed less than 30% of inhibitory activity in 0.2 nM-addition zone and showed 30% or more of inhibitory activity in 2 nM-addition zone)
250 (ERVYVDR[3Pal(6-Ph)]HYV[Bip]Y[Phe(4-COOH)][Phe(4-COOH)]SCG-NH2; not fully specified) [compound 250],,,"E (showed less than 30% of inhibitory activity in 100 nM-addition zone and showed 30% or more of inhibitory activity in 1,000 nM-addition zone)",C (showed less than 30% of inhibitory activity in 0.2 nM-addition zone and showed 30% or more of inhibitory activity in 2 nM-addition zone)
251 (ERVYVDR[3Pal(6-Ph)]S[hTyr]V[Bip]Y[Phe(4-COOH)][Phe(4-COOH)]SCG-NH2) [compound 251],,,ND (the inhibitory activity was less than 30% at the maximum concentration evaluated),C (showed less than 30% of inhibitory activity in 0.2 nM-addition zone and showed 30% or more of inhibitory activity in 2 nM-addition zone)
252 (LRVYVDR[3Pal(6-Ph)]SYV[Bip][4Pal][Phe(4-COOH)][Phe(4-COOH)]SCG-NH2; not fully specified) [compound 252],,,ND (the inhibitory activity was less than 30% at the maximum concentration evaluated),C (showed less than 30% of inhibitory activity in 0.2 nM-addition zone and showed 30% or more of inhibitory activity in 2 nM-addition zone)
253 (ERVYVSR[3Pal(6-Ph)]SYV[Bip][4Pal][Phe(4-COOH)][Phe(4-COOH)]SCG-NH2; not fully specified) [compound 253],,,ND (the inhibitory activity was less than 30% at the maximum concentration evaluated),C (showed less than 30% of inhibitory activity in 0.2 nM-addition zone and showed 30% or more of inhibitory activity in 2 nM-addition zone)
254 (ERVYVSR[3Pal(6-Ph)]S[hTyr]V[Bip]Y[Phe(4-COOH)][Phe(4-COOH)]SCG-NH2; not fully specified) [compound 254],,,ND (the inhibitory activity was less than 30% at the maximum concentration evaluated),C (showed less than 30% of inhibitory activity in 0.2 nM-addition zone and showed 30% or more of inhibitory activity in 2 nM-addition zone)
256 (ERV[Phe(4-F)]VSR[3Pal(6-Ph)]SYV[Bip][4Pal][Phe(4-COOH)][Phe(4-COOH)]SCG-NH2; not fully specified) [compound 256],,,ND (the inhibitory activity was less than 30% at the maximum concentration evaluated),C (showed less than 30% of inhibitory activity in 0.2 nM-addition zone and showed 30% or more of inhibitory activity in 2 nM-addition zone)
257 (TRVYVDR[3Pal(6-Ph)]SYV[Bip]Y[Phe(4-COOH)][Phe(4-COOH)]SCG-NH2; not fully specified) [compound 257],,,"E (showed less than 30% of inhibitory activity in 100 nM-addition zone and showed 30% or more of inhibitory activity in 1,000 nM-addition zone)",C (showed less than 30% of inhibitory activity in 0.2 nM-addition zone and showed 30% or more of inhibitory activity in 2 nM-addition zone)
263 (ERVYV[KCOpipzaa]R[3Pal(6-Ph)]SYV[Bip]Y[Phe(4-COOH)][Phe(4-COOH)]SCG-NH2; not fully specified) [compound 263],,,"E (showed less than 30% of inhibitory activity in 100 nM-addition zone and showed 30% or more of inhibitory activity in 1,000 nM-addition zone)",C (showed less than 30% of inhibitory activity in 0.2 nM-addition zone and showed 30% or more of inhibitory activity in 2 nM-addition zone)
